{"source": "IntAct's records for PubMed 34597683", "parents": {"B1": {"name": "Prickle-like protein 1 (Mus musculus), Q3U5C7 (parent)", "chain": "MPLEMEPKMSKLVFGCQRSSTSDDDSGCALEEYAWVPPGLRPEQIQLYFACLPEEKVPYVNSPGEKHRIKQLLYQLPPHDNEVRYCQSLSEEEKKELQVFSAQRKKEALGRGTIKLLSRAVMHAVCEQCGLQMNGGEVAVFASRAGPGVCWHPSCFVCFTCNELLVDLIYFYQDGKIHCGRHHAELLKPRCSACDEIIFADECTEAEGRHWHMKHFCCLECETVLGGQRYIMKDGRPFCCGCFESLYAEYCETCGEHIGVDHAQMTYDGQHWHATEACFSCAQCKASLLGCPFLPKQGQIYCSKTCSLGEDIHASDSSDSAFQSARSRDSRRSVRMGRSSRSADQCRQSLLLSPALNYKFPGLSGNADDTLSRKLDDVSLASRQGAGFANEEFWKARVEQEASEDPEEWAEHEDYMTQLLLKFGDKNLFQQQSSEVDPRASEHWIPDNMVTNKPEVKPNHQGLASKKYQSDMYWAQSQDGLGDSAYGSHPGPASSRRLQELDLDHGAAGYTHDQSQWYEDSLECLSDLKPEQSIRDSMDSLALSNITGASVDGESKPRPSLYSLQNFEEIEAEDCEKMSNMGTLNSSMLHRSAESLQSLNSGLCPEKILPEEKPAHLPVLRRSKSQSRPQQVKFSDDVIDNGSYDIEIRQPPMSERTRRRAYHFEERGSRPHHHRHRRSRKSRSDNALNLVTERKYSAKDRLRLYTPDNYEKFIQNKSARELQAYMQNANLYSQYAHATSDYALQNPGMNRFLGLCGEDDDSWCSSSTSSSDSEEEGYFLGQPIPQPRPQRFTYYTDDLSSPASALPTPQFTQRTTKSKKKKGHKGKNCIIS", "partner": "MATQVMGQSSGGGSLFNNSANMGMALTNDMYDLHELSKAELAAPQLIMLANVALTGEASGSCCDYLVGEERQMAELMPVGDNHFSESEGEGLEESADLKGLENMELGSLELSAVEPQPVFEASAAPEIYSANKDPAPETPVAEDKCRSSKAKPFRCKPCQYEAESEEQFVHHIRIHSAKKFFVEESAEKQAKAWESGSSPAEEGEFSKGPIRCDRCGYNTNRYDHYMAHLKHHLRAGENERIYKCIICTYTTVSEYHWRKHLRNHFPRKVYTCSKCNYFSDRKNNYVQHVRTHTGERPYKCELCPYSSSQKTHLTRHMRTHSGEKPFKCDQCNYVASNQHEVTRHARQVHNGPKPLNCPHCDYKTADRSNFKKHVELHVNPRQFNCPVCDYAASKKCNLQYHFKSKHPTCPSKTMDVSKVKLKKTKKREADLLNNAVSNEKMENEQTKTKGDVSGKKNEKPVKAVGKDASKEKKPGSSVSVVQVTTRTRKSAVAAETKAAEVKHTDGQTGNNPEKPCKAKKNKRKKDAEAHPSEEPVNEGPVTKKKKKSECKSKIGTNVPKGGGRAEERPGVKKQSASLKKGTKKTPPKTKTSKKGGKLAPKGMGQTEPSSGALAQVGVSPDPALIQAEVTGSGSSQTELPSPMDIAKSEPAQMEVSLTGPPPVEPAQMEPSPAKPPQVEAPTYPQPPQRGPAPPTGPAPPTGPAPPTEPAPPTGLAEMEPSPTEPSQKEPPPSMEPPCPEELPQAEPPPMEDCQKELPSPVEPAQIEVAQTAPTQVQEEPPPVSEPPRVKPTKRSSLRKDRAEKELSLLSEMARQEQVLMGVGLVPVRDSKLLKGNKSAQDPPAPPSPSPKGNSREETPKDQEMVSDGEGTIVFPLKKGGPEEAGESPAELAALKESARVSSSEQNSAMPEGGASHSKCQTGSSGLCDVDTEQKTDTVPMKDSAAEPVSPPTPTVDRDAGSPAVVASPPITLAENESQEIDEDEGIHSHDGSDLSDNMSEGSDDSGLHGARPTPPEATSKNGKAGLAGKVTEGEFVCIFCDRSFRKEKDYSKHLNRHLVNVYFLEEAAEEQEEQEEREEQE"}}}
{"variants_of": "B1", "conditions": "with rest_mouse Rest"}
{"variant": "R104Q", "effect of a mutation on the interaction": "decreasing interaction"}
